Laboratory results as given in patent publication US20200407442A1 (WUXI BIOLOGICS IRELAND, published 2020).

How the values were obtained:
Experiment in all cases: ELISA, antibody coated, LAG-3 D12.mFc mutant in supernatant, normalised to control mutants
[1] = molecular target: T1, human LAG-3-ECD.D12.mFc mutant L122A (human, UniProt P18627 37-252)
T1 construct: Alanine scanning mutant; construct limits as for m26
T1 chain: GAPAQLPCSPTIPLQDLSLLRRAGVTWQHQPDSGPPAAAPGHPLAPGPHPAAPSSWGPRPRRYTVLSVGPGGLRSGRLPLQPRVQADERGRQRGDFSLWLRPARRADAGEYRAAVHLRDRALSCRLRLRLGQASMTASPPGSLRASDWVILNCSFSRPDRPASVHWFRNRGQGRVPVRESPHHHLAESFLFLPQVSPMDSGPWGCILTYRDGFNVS
Procedure: (§1) For ELISA binding assay, the antibody 1.53.3-uAb-IgG4k or 3.40.19-uAb-hIgG4L (2 μg/mL) was coated in plates. After interacting with the supernatant that contains quantified LAG-3 mutants or human LAG-3-ECD.D12.mFc protein, HRP conjugated anti-mFc antibody (1:5000; Bethyl, USA) was added as a detection antibody. Absorbance was normalized according to the average absorbance of control mutants. After setting an additional cutoff to the binding fold change (<0.75), the final determined epitope residues were identified.

[2] = molecular target: T2, human LAG-3-ECD.D12.mFc mutant A139G (human, UniProt P18627 37-252)
T2 construct: construct limits as for m26
T2 chain: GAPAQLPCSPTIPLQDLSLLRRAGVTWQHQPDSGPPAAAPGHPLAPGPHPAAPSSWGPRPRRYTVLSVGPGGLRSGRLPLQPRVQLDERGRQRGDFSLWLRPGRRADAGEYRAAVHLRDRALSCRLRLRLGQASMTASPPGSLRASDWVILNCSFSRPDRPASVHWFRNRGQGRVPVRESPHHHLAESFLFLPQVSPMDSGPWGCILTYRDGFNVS
Procedure: as §1

[3] = molecular target: T3, human LAG-3-ECD.D12.mFc mutant L153A (human, UniProt P18627 37-252)
T3 construct: Alanine scanning mutant; construct limits as for m26
T3 chain: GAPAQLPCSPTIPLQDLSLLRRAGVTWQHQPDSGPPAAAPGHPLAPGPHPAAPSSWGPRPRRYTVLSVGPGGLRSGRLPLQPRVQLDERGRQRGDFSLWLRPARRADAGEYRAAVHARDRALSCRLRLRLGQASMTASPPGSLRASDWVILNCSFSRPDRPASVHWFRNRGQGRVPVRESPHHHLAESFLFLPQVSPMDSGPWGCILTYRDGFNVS
Procedure: as §1

[4] = molecular target: T4, human LAG-3-ECD.D12.mFc mutant G145A (human, UniProt P18627 37-252)
T4 construct: Alanine scanning mutant; construct limits as for m26
T4 chain: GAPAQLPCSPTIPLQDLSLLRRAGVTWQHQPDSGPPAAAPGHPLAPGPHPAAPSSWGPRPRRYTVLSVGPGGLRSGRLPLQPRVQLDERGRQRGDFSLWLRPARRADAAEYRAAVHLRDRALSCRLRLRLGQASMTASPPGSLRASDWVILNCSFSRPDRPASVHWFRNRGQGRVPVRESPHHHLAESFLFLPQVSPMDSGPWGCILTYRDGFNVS
Procedure: as §1

[5] = molecular target: T5, human LAG-3-ECD.D12.mFc mutant L164A (human, UniProt P18627 37-252)
T5 construct: Alanine scanning mutant; construct limits as for m26
T5 chain: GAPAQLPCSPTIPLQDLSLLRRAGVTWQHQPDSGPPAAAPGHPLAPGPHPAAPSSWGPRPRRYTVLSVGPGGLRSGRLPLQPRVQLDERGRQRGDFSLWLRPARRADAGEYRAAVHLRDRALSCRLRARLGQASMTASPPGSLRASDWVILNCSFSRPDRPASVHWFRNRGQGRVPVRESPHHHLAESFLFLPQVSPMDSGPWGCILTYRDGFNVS
Procedure: as §1

[6] = molecular target: T6, human LAG-3-ECD.D12.mFc mutant V61A (human, UniProt P18627 37-252)
T6 construct: Alanine scanning mutant; construct limits as for m26
T6 chain: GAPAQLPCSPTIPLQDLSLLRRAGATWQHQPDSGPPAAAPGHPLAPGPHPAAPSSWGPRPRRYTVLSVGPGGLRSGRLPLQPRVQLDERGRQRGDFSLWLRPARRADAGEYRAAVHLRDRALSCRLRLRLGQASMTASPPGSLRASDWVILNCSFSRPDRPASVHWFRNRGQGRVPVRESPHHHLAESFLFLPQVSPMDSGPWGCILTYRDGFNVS
Procedure: as §1

[7] = molecular target: T7, human LAG-3-ECD.D12.mFc mutant V101A (human, UniProt P18627 37-252)
T7 construct: Alanine scanning mutant; construct limits as for m26
T7 chain: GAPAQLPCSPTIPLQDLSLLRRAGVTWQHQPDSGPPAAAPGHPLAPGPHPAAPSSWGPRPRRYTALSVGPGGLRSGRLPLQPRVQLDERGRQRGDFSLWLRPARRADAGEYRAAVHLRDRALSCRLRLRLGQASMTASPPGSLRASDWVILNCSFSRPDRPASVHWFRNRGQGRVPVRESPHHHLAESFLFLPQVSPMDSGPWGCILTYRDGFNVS
Procedure: as §1

[8] = molecular target: T8, human LAG-3-ECD.D12.mFc mutant Y147A (human, UniProt P18627 37-252)
T8 construct: Alanine scanning mutant; construct limits as for m26
T8 chain: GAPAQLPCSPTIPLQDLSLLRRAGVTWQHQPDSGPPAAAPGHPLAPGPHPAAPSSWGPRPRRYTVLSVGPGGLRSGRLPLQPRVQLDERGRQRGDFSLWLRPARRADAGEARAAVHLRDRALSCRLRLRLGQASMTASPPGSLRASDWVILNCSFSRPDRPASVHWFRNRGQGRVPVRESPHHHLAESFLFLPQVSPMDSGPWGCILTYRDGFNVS
Procedure: as §1

Row | Binder | Fold Change [1] | Fold Change [2] | Fold Change [3] | Fold Change [4] | Fold Change [5] | Fold Change [6] | Fold Change [7] | Fold Change [8]
1 | 3.40.19-uAb-IgG4L (antibody, V domains shown, Fully human antibody from OMT rats; IgG4 lambda by its name; also called 3.40.19-uAb-hIgG4L) VH: QLQLQESGPGLVKPSETLSLTCTVSGDSISSTSYYWGWIRQPPGKGLEWIGSFYYSGSTYYNPSLKSRVTISVDTSKNQFSLKLNSVTAADTAVYYCARMQLWSYDVDVWGQGTTVTVSS VL: QSALTQPASVSGSPGQSITISCTGTSSDVGGYDYVAWYQQHPGKVPKLMIYDVSERPSGVSNRFSGSKSGNTASLTISGLQAEDEADYYCSSYTSTTTLVVFGGGTKLSVL | 0.391 | 0.368 | 0.632 | 0.466 | 0.278 | 0.514 | 0.275 | 0.19
2 | 1.53.3-uAb-IgG4k (antibody, V domains shown, Fully human antibody from OMT rats; IgG4 kappa by its name) VH: QVQLQQWGAGLLKPSETLSLTCGVYGGSFSGYYWSWIRQPPGMGLEWIGEINHRGNTNYNPSLKSRVTISEDTSKNQFSLRLSSVTAADTAVYFCTRGEDYSDYDYYGDFWGQGTLVTVSS VL: EIVLTQSPATLSLSQGERATLSCRASQSISSYLAWYQQKPGQAPRLLIYAASNRATGIPARFSGSGSGTDFTLTISSLEPEDFAIYYCQQRSNWPLTFGGGTKVEIK | 0.607 | 0.708 | 0.749 | 0.692 | 0.586 | 0.637 | 0.504 | 0.637
